Target: ELIC-α1GABAAR chimera (Erwinia chrysanthemi | human) (UniProt P0C7B7)
Experiment: crystal structure

ELIC-α1GABAAR chimera (from UniProt P0C7B7 1-199) (receptor)
stoichiometry N: 5
